The target of the assay is human calmodulin (CaM) construct possessing an N-terminal His6 tag (human, UniProt P0DP23 1-149). Put plainly: single-molecule TIRF microscopy.

No end group written: not given here.

We go through 1 molecule from PMC5632315 (Biochemistry, 2016).

For the molecule C(Alexa Fluor 555 maleimide)KKKKKRFSFKKSFKLSGFSFKKNKK [Human MARCKS PIP2 binding domain peptide (MARCKS residues 151-175) with an added N-terminal cysteine], the binding result is “binds”.
